Assay results reported in a protein production outcome set (Wang et al. 2014).

Assay: label from the status in PepcDB records

Sequence	protein production
SVDKNRTLHELSSKNFSRTPNGLIFTNDLKTVYSIFLICLDLKEKKHSSDTKSFLLTAFTKHFHFTFTYQEAIKAMGQLELKVDMNTTCINVSYNIKPSLARHLLTLFMSSKLLHTPQDRTRGEPKEKVLFQPTPKGVAVLQKYVRDIGLKTMPDILLSSFNSMKLFTFERSSVTDSIIHSDYLIHILFIKMMGAKPNVWSPTNADDPLPCLSSLLEYTNNDDTFTFEKSKPEQGWQAQIGNIDINDLERVSPLAHRFFTNPDSESHTQYYVSNAGIRLFENKTFGTSKKIVIKYTFTTKAIWQWIMDCTDIMHVKEAVSLAALFLKTGLIVPVLLQPSRTDKKKFQISRSSFFTLSKRGWDLVSWTGCKSNNIRAPNGSTIDLDFTLRGHMTVRDEKKTLDDSEGFSQDMLISSSNLNKLDYVLTDPGMRYLFRRHLEKELCVENLDVFIEIKRFLKKMTILKKLIDSKHCDKKSNTSTSKNNIVKTIDSALMKQANECLEMAYHIYSSYIMIGSPYQLNIHHNLRQNISDIMLHPHSPLSEHFPTNLYDPSPASAESAASSISSTEADTLGEPPEVSLKPSKNLSNENCSFKKQGFKHQLKEYKPAPLTLAETHSPNASVENSHTIVRYGMDNTQNDTKSVESFPATLKVLRKLYPLFEIVSNEMYRLMNNDSFQKFTQSDVYKDASALIEIQEKC	failed
MSSEMEPLLLAWSYFRRRKFQLCADLCTQMLEKSPYDQAAWILKARALTEMVYIDEIDVDQEGIAEMMLDENAIAQVPRPGTSLKLPGTNQTGGPSQAVRPITQAGRPITGFLRPSTQSGRPGTMEQAIRTPRTAYTARPITSSSGRFVRLGTASMLTSPDGPFINLSRLNLTKYSQKPKLAKALFEYIFHHENDVKTIHLEDVVLHLGIYPFLLRNKNHIEKNALDLAALSTEHSQYKDWWWKVQIGKCYYRLGMYREAEKQFKSALKQQEMVDTFLYLAKVYVSLDQPVTALNLFKQGLDKFPGEVTLLCGIARIYEEMNNMSSAAEYYKEVLKQDNTHVEAIACIGSNHFYSDQPEIALRFYRRLLQMGIYNGQLFNNLGLCCFYAQQYDMTLTSFERALSLAENEEEAADVWYNLGHVAVGIGDTNLAHQCFRLALVNNNNHAEAYNNLAVLEMRKGHVEQARALLQTASSLAPHMYEPHFNFATISDKIGDLQRSYVAAQKSEAAFPDHVDTQHLIKQLRQHFAML	failed
MQVISPSSPAPRFAGKERFSEVYGELNDDFGSKLKISSKEEENRDDDSWWNQNGTDKDDEGREEDFSFASVNADNSPITADEAFEDGQIRPVYPLFNRNIFFDDPEEKTLRSPLKKLFVESTTTEEEEEESDTVGPYCSWTNRTVEQASPETCRKSNSTGFSKLWRFRDLVLRSNSDGKDAFVFLSNGSSSTSSTSSTAARLSGVVKSSEKGKEKTKTDKKKDKMRTKSAHEKLYMRNRAMREEGKRRSYLPYKHVGFFTNVNGLTRNVHPY	failed
MKLPKALNEATAGAALKYHIKRALERSHSISDFSKNLELSTQKSHFSNNTLKIIEELNNGVKQASEEIKEKARDFSNQKLTNEQIKDLLNNAEIPTSGRDAITFGVNNLNPEIVEFLHKNNKKMIIEKASNKELELLKDANFKHPENIRASLDHDAIAHILKRHGVNSVNVRNGEIPITNEDIANYRYIVNNADAILRTLDNENKELISAFKQINGYAVVVEQAINKKNELVLKTMYKSKGDYKDNNAYKKFSSTHTLNADAKVNHRLSSYSGATENTTQKDLIDQENLLKTSENLNESTPKPTNLSPLEQANAEKLAKLESEKLESEKEFLKAKEQEATRKAALKKKLEHERGNAGNIESQTKIEVGEDIPTQTQAQLPKSRVRLNEREIYDLDYAIVKAKDLKPSFTTGGTQKRTDMNEEQIKSIAENFDPKKIFGSGGFEDLPIILHDGQVIAGNHRIQGMLNFTPKSRFSYERAIKEYYHIDLKPDELLVRVPHKRLNNTEINNLAASSNQGRFNSESDHAIAVLSHYEAKLKELDQKLDADSIYSLKNIVAKNLNFDKATHPNVTDSNLALLMFNMPRTKTQGIELLNRWKKEFSNDIKSYEKVKKMFVDNAGSFHNLIHDLNFPKVSLNAYLSDIMDRSFANLKNYQSTSESLKDLSEKFYKTSSLEMFEKSDQSTSDISEILGGAIARFARFDDPSKALFEALRSDNIKKGLKDYKIADVTKDMFNADSKEFKDIDIYDFTHYLLMVNREPNENNPILKRLIEAVKDMQKESEKGIKQKLETPSEWGHNYSEFKGDGLGAINKLLETKKGFVAGAFHKEGLGDIDLVYGNSKYGLEHIFNRRESDAIDKGMSKEEAKKYALKIINNIPNIISNGKLSKDNLGRLSIEFENQRVGLNDSWKGETLNNRWVITSYEIDKSRNGLIESPLAPNYKGKDTNPLNLDSPNPTTKN	failed
MVGRDNVENTAMGEALSPSQISGRVDAVWGNPMAWEAAGWQWERLPAIRRMVNRHVTGDEAIDPLSWFFQRVAKDQTLPVRRALVLACGAGGLERQLISQGWVSEVVAVDLSPGALAAARDAARQAGISGIDYRQADMNALDVEGPFDLAVGSSALHHCENLEGIFAVVRRVLVPGGWFFLNDYIGPNRLQYDAAQVLEVNRLLQCLPDPLVMNAAGFSRRGFRPASLAEVIAFDPSEAPRSADILRVMGEALEVETVRPYGGNLLYLVLSNLAQNFDPAQSGDAAAPDYLRLLIEASDHWRATRHGQDHFAAAIARQPIS	failed
MSEKLQKVLARAGHGSRREIESIIEAGRVSVDGKIAKLGDRVEVTPGLKIRIDGHLISVRESAEQICRVLAYYKPEGELCTRNDPEGRPTVFDRLPKLRGARWIAVGRLDVNTCGLLLFTTDGELANRLMHPSREVEREYAVRVFGQVDDAKLRDLSRGVQLEDGPAAFKTIKFSGGEGINQWYNVTLTEGRNREVRRLWEAVGVQVSRLIRVRYGDIPLPKGLPRGGWTELDLAQTNYLRELVELPPETSSKVAVEKDRRRMKANQIRRAVKRHSQVSGGRRSGGRNNNG	not failed
MSLNGSRRIPQPIRWAMVGGGSQSQIGYIHRCAALRDNTFVLVAGAFDIDPIRGSAFGEQLGVDSERCYADYLSMFEQEARRADGIQAVSIATPNGTHYSITKAALEAGLHVVCEKPLCFTVEQAENLRELSHKHNRIVGVTYGYAGHQLIEQAREMIAAGELGDVRMVHMQFAHGFHSAPVEAQSQATQWRVDPRQAGPSYVLGDVGTHPLYLSEVMLPDLKIKRLMCSRQSFVASRAPLEDNAYTLMEYEGGAMGMVWSSAVNAGSMHGQKIRVIGSRASLEWWDERPNQLSFEVQGQPAQILERGMGYLHPNALIDDRIGGGHPEGLFEAWANLYYRFALAMDATDRSDTQALSAVRYPGIDAGVEGVRWVERCVLSADNDSIWVAYEGHHHHHH	not failed
MKRKLIYLFIALAATILPAHAQKFLNDALTLSNVSLWQQGNSLYVGMTVDMANLTIGSARSLSLIPLLTDGQHNVPLQEIIVNGKRREKAYLRGLAISKQESTAIIVPYNKRETFNYTQVIPYQPWMANASLQLVENLCGCGNYQEMNAQELITNDVSTEAKRLSAMSPIVAYIQPTVEVVKNRSEQYEAHLDFPVNKSVILTDFMNNHSELVNIHSMFDKIQNDKNLTVQSISIEGFASPEGPLAFNEQLSKKRAEALKDYLVKNEKASAKLYKVTFGGENWDGLVKALESSSMKDKETFLNIIKNTTNDVKRKQEIMKVGGGAPYRTMLKEIYPGLRKVNCKIDYTVVNFDVEQGRIIIRENPKYLSLNEMYQVANSYPKGSKDFVDVFDIAVRMYPTDAVANLNAAAVALSQKDINTALKYMEKADHTTAEFLNNTGVYNFLNGDIQRATAAFEQAAKLGNEAAQANLKQLQQIMNMKMSK	failed
MSLAVTMFKRARAEIFDRNREVGISNVTTAASLVTFPVLAGILGGVVPSVRTPSAAMVSGVQHFAAGIVMAAVAGEVLPDLRSRGPLWLIVVGFSAGVAVLVALRRFDGHGEHQDGDDVGELPVGFLTVVAVDLFIDGLLVATGATVSSRTAIIITIALTVEVLFLGLAVALRLAGSGMPRIRAAATTSALSLVIAVGGVSGAVALGRAGNTVLTLVLAFAAGALLWLVVEELLVEAHETPERPWMAVMFFAGFLILYGLGVME	failed
MINKDTQLCMSLSGRPSNFGTTFHNYLYDKLGLNFIYKAFTTQDIEHAIKGVRALGIRGCAVSMPFKETCMPFLDEIHPSAQAIESVNTIVNDNGFLRAYNTDYIAIVKLIEKYHLNKNAKVIVHGSGGMAKAVVAAFKNSGFEKLKIYARNVKTGQYLAALYGYAYINSLENQQADILVNVTSIGMKGGKEEMDLAFPKAFIDNASVAFDVVAMPVETPFIRYAQARGKQTISGAAVIVLQAVEQFELYTHQRPSDELIAEAAAFARTKF	not failed
MYTIYVPGLRDPDLCNHSLMAEILCIYSSNAFEKIRKYDNLFTYVDYGNLKESELYKKRNEEESSFLYKKRILSNNIQDKKLKFDIKKEQFNYGALLFFSLNDGEFLNYISENICGNSVEVLASNNSMTTLVCGDDKGFIRILRNNPKYDDFEIKNTQMIRDVDKECCTKLFNNKIIKIDERRRNSYQTKRKKSIDKQQDLLKKAKMENFSDH	failed
AIASSAIERKSLDPSEEPVDEVLQIPPSLLTCGGCQQNIGDRYFLKAIDQYWHEDCLSCDLCGCRLGEVGRRLYYKLGRKLCRRDYLRLFGQDGLCASCDKRIRAYEMTMRVKDKVYHLECFKCAACQKHFCVGDRYLLINSDIVCEQDIYEWTKINGMI	failed
MAVPPVEMYSGSFWNRMRKPLPLRTQVIRFTVVFVIVSFILAVALQITHERMPDPKVTKPLPDLGFELLTKVPGMYVLADCCIGFLNILSVFTAFKLYLLHRHCVGSGEPELPCNIPGVSRFFLSVWLCKENCRIELRNIHTIAWIRFITSYALLLLFRSAVIVMTSLPAPDDLCQDPPKIENPVKNVILTVLTAGGGSIHCGDLMYSGHTVILTLHLMFHWIYGAMVHWSFRPVVTVVAIFGYYCIVASRFHYTDDVLVAIYLTIATFIAVGHNADGAPWQLQLFIRWWPCCGANSREVTEDSQPVMVAFKSEELDEMNGVLEGRQKKHGGVGDGESLMFKCGAYVVSHHHHHH	not failed
MAEICLITGTPGSGKTLKMVSMMANDEMFKPDENGIRRKVFTNIKGLKIPHTYIETDAKKLPKSTDEQLSAHDMYEWIKKPENIGSIVIVDEAQDVWPARSAGSKIPENVQWLNTHRHQGIDIFVLTQGPKLLDQNLRTLVRKHYHIASNKMGMRTLLEWKICADDPVKMASSAFSSIYTLDKKVYDLYESAEVHT	not failed
MSGKNIVFLVLLLFIPVSLAAHYLEWGDLIVFITAGLAILPLAAWMGAATEEIAVVVGPTLGGLLNATFGNATELIIALVALNAGLVNVVKASITGSIIGNLLLVMGLSMLLGGLRHKEQTFQPIVARVNASAMNLAVIAILLPTAMNYTAQGIGEETLQYLSVAVAVVLILVYILTLIFSMKTHAYLYDVGVAEIETEENPHPKPNILLWSGVLLVCTLLVAVESELLVDALEVATSQLGLTALFTGVILVPIVGNAAEHATAVTVAMKDKMDLSVSVAVGSSMQIALFVAPVLVIAGWILGQPMDLDFQPFELVAVVVSVLIANSISSDGKSNWLEGTLLLAAYTVLGFAFYFHPDVGGLG	failed
PETVCWGHVEEVELINDGSGLGFGIVGGKTSGVVVRTIVPGGLADRDGRLQTGDHILKIGGTNVQGMTSEQVAQVLRNCGNSVRMLVARDPAGDISVT	not failed
MCKNSQYLHLPDEIPQQLMLLWESSDEVWGFKDLDSHYLYANNPFIELLNFPPEFCIKGLLDDELPHPSFAKFSSQFREQELLAAITKKRVSSIEMHYFGREQKLQPYLFDKFPLLNSKKECLGIIF	failed
MNNTGLSVKKVVAIGIGSAIYVILARFTSIPTPIPNTNIELVFPFLAFFASIYGATVGFSVGFIGHALSDFIMYGQTWWSWVLATGILGWIIGLAYKRLDLKNGIFGLKQIILFNIVQIIANILAWIVVAPIGDIIIYSEPANKVFVQGISATISNGISILIIGTILLKAYASTKIKKGSLRKED	failed
